Data on 13 substances can be found in patent US20240182536A1.

“And” between values parts separate entries of the source, which are not always exact repeats. Equal entries are not always repeated. Where two headings read alike, the source gives them in different places.

What all share (test): cell-based or functional assay
In test [1] the target is human IL-18 binding protein (human) (UniProt O95998).
In test [2] the target is IL-18 receptors on HEK-Blue IL-18 reporter cells (UniProt Q13478).
The target of test [3] is interleukin 18 binding protein (IL-18BP) (UniProt O95998).
The target in test [4] is human IL-18 binding protein (human) (UniProt O95998). The source holds these as a separate data set.
The target in test [5] is IL-18 receptors on HEK-Blue IL-18 reporter cells (UniProt Q13478). The source holds these as a separate data set.
Test [6] deals with T1, IL-18 receptor (IL-18Rα and IL-18Rβ) (UniProt Q13478).
T1 sequence (looked up) 1: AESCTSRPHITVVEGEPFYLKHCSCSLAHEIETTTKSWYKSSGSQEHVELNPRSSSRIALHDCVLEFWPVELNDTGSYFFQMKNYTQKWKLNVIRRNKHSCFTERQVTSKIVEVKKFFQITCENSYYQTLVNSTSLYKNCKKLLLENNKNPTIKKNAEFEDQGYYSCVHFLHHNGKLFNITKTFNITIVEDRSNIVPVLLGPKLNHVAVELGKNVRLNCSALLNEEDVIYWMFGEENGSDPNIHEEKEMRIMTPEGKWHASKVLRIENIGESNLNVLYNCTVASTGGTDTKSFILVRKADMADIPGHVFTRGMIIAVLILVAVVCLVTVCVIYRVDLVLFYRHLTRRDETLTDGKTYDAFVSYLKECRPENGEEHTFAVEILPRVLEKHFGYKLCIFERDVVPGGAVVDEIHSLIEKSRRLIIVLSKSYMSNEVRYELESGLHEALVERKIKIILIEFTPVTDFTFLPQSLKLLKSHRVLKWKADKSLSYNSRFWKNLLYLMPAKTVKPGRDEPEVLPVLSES
T1 sequence (looked up) 2: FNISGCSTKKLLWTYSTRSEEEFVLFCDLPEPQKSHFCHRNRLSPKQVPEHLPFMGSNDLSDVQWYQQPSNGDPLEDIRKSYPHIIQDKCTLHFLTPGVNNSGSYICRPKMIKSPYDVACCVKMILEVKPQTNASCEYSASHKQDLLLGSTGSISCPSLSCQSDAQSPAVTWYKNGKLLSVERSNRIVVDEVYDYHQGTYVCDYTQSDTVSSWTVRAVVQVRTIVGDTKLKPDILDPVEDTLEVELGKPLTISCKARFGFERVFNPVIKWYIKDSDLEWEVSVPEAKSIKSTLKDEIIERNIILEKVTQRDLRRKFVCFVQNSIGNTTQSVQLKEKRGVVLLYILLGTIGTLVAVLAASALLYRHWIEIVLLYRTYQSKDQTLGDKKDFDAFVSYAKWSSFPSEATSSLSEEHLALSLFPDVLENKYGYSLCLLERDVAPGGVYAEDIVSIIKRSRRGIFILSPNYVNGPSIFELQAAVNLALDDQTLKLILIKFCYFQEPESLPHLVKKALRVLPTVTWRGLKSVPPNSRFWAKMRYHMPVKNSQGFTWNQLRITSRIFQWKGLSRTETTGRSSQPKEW

For test [7], the target named is IL-18 binding protein (IL-18BP) (UniProt O95998).
IL-18 binding protein (IL-18BP), sequence (O95998 31-194 limits assumed): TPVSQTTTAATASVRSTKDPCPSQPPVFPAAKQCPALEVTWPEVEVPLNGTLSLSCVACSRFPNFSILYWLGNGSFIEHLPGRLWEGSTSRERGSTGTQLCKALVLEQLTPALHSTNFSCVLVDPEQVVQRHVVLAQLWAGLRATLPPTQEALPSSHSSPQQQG

interleukin 18 binding protein (IL-18BP), sequence (O95998 31-194 limits assumed): as above
human IL-18 binding protein (human), sequence (O95998 31-194 limits assumed): as above
WT-monoFc (Fc fusion), sequence (chain): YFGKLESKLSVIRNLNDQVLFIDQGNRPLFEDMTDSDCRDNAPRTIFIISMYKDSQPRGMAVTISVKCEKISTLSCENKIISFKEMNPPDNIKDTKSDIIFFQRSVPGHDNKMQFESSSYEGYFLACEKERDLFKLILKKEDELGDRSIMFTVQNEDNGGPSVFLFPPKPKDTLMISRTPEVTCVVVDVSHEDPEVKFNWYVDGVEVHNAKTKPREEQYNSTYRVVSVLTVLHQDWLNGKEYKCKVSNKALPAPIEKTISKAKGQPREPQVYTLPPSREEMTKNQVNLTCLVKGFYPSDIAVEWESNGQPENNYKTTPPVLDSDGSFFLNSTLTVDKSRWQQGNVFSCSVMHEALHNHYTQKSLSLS
WT-hIL-18-monoFc (Fc fusion), sequence (chain): as above
WT-monoFc (wild-type human IL-18 linked to monoFc) (Fc fusion), sequence (chain): as above

Consider G3T/E6K/K53A-monoFc (Fc fusion), for which the HEK-blue EC50 (pM) + 300 nM IL-18BP in test [1] was determined as 2.81 pM. In addition, the HEK-blue EC50 (pM) - IL-18BP in test [2] was determined as 0.06 pM.
For the substance G3T/M60K-HSA-his-avi, in test [1], the HEK-blue EC50 (pM) + 300 nM IL-18BP was determined as 4.25 pM. Besides, the HEK-blue EC50 (pM) - IL-18BP in test [2] was determined as 0.36 pM.
G3T/M60K-monoFc (Fc fusion): the HEK-blue EC50 (pM) + 300 nM IL-18BP in test [1] was found to be 1.78 pM. This substance also had an HEK-blue EC50 (pM) - IL-18BP in test [2] of 0.21 pM.
G3V/M60K-HSA-his-avi: the HEK-blue EC50 (pM) + 300 nM IL-18BP in test [1] came to 3.83 pM. The same substance registered an HEK-blue EC50 (pM) - IL-18BP in test [2] of 0.19 pM.
As for G3V/M60K-monoFc (Fc fusion), the HEK-blue EC50 (pM) + 300 nM IL-18BP in test [1] is 1.57 pM. This substance also gave an HEK-blue EC50 (pM) - IL-18BP in test [2] of 0.15 pM.
Regarding “IL-18 variant S36E, D40A, N41M, K53T, S55Y, P107S (ligand)”, in test [3], the HEK-Blue activity, +100 nM BP, DF-10000 amounted to 0.25; the HEK-Blue activity, +100 nM BP, DF-100,000 turned out to be 0.11; the HEK-Blue activity, +100 nM BP, DF-1,000,000 turned out to be 0.09; the Ratio (-BP/+BP), DF-10000 is 0.97. In addition, in test [3], the Ratio (-BP/+BP), DF-100,000 came to 1.02 and the Ratio (-BP/+BP), DF-1,000,000 turned out to be 1.01. Moreover, in test [2], the HEK-Blue activity, No BP, DF-10000 came out at 0.24; the HEK-Blue activity, No BP, DF-100,000 amounted to 0.11; the HEK-Blue activity, No BP, DF-1,000,000 turned out to be 0.09.
On to WT-hIL-18-monoFc (Fc fusion), for which, in test [1], the HEK-Blue activity, +100 nM BP, DF-10000 came out at 0.92; the HEK-Blue activity, +100 nM BP, DF-100,000 came out at 0.29; the HEK-Blue activity, +100 nM BP, DF-1,000,000 was 0.24; the HEK-blue EC50 (pM) + 300 nM BP was determined as 221 pM. Further, in test [1], the HEK-blue EC50 (pM) + 300 nM IL-18BP was over 500 pM; the Ratio (-BP/+BP), DF-10000 worked out at 2.45; the Ratio (-BP/+BP), DF-100,000 is 7.16; the Ratio (-BP/+BP), DF-1,000,000 was found to be 7.32. In test [2], this substance came in with an HEK-Blue activity, No BP, DF-10000 of 2.24; an HEK-Blue activity, No BP, DF-100,000 of 2.08; an HEK-Blue activity, No BP, DF-1,000,000 of 1.75; an HEK-blue EC50 (pM) - BP of 0.458 pM. The substance further returned an HEK-blue EC50 (pM) - IL-18BP in test [2] of 0.29 pM. For the same substance, the HEK-blue EC50 (pM) + 1000 nM BP in test [4] was determined as 99.8 pM. Also, the HEK-blue EC50 (pM) - BP in test [5] came out at 0.495 pM.
As to WT-monoFc (Fc fusion), in test [3], the HEK-blue EC50 (pM) + 300 nM BP was over 500 pM and the Ratio was 947. This substance also displayed an HEK-blue EC50 (pM) - BP in test [2] of 0.52 pM.
For the substance “WT-monoFc (wild-type human IL-18 linked to monoFc) (Fc fusion)”, in test [3], the EC50 (pM), PBMC IFN gamma assay, + 300 nM BP stood at 611 pM; the Ratio (HEK-blue EC50, + 100 nM BP against - BP) is 520 and 360 and 338. For the same substance, in test [6], the EC50 (pM) - BP, HEK-blue re-screening was 0.51 pM and 0.43 pM and 0.6 pM; the EC50 (pM), PBMC IFN gamma assay was 96.8 pM.
hDR-18-monoFc (Fc fusion): in test [7], the Activity, +100 nM BP, DF-1000002 was 2.01; the Activity, +100 nM BP, DF-5000003 is 1.95; the Activity, +100 nM BP, DF-25000004 is 1.59; the Ratio (-BP/+BP), DF-1000005 worked out at 0.99. Also, in test [7], the Ratio (-BP/+BP), DF-5000006 is 0.98 and the Ratio (-BP/+BP), DF-25000007 stood at 0.93. Moreover, in test [1], the HEK-Blue activity, +100 nM BP, DF-10000 came to 2.21; the HEK-Blue activity, +100 nM BP, DF-100,000 stood at 2.19; the HEK-Blue activity, +100 nM BP, DF-1,000,000 came to 2.1; the Ratio (-BP/+BP), DF-10000 was determined as 0.99. In test [1], the Ratio (-BP/+BP), DF-100,000 turned out to be 1.03 and the Ratio (-BP/+BP), DF-1,000,000 stood at 1.03. Besides, in test [2], the Activity, No BP, DF-100000 stood at 2; the Activity, No BP, DF-500000 was 1.91; the Activity, No BP, DF-2500000 stood at 1.49; the HEK-Blue activity, No BP, DF-10000 stood at 2.19. In test [2], this substance registered an HEK-Blue activity, No BP, DF-100,000 of 2.26 and an HEK-Blue activity, No BP, DF-1,000,000 of 2.16.
As for “hIL18(G3P, E6K, D54Y, S55P, T63S, N91S, R104Q)-monoFc (Fc fusion)”, the EC50 (pM), PBMC IFN gamma assay, + 300 nM BP in test [3] was 74.5 pM. In test [6], the EC50 (pM), PBMC IFN gamma assay was 19.5 pM.
On the same counts, the results for “hIL18(G3P, E6K, D54Y, S55P, T63S, N91S, R104Q, Q154R)-monoFc (Fc fusion)” are 64.1 pM and 85.6 pM.
As to “wt-monoFc (from UniProt Q14116 37-193; P01857 119-327) (Fc fusion)”, in test [7], the Activity, +100 nM BP, DF-1000002 turned out to be 0.11; the Activity, +100 nM BP, DF-5000003 turned out to be 0.08; the Activity, +100 nM BP, DF-25000004 was 0.07; the Ratio (-BP/+BP), DF-1000005 was determined as 17.4. Also, in test [7], the Ratio (-BP/+BP), DF-5000006 is 17.4 and the Ratio (-BP/+BP), DF-25000007 came to 10.5. In test [2], this substance displayed an Activity, No BP, DF-100000 of 1.94; an Activity, No BP, DF-500000 of 1.43; an Activity, No BP, DF-2500000 of 0.77.
